For test [1], the system named is human platelets (thrombin-induced aggregation). The test can be described thus: Thrombin-induced platelet aggregation assay. Type of test: cell-based. As to conditions: for IC50 (estimated concentration which inhibits 50% of the aggregation): 0.5 U/mL human thrombin, 37° C., conjugate: average of 10 argatrobans/RSA used. As to the method: The conjugate was prepared according to the following protocol. A 15 μM solution of RSA in PBS was reacted with 200 μM argatroban-C6 NHS ester for 1 hour at room temperature. Sham samples consist of the RSA incubated for the same length of time at RT in 2% DMSO in PBS. Each of the samples was then concentrated to a final volume of 1.5 mL using Amicon Centricon 30 filtration/concentration devices. The concentrated samples were then desalted on Pierce's 5 ML Kwiksep excellulose plastic desalting columns. The excluded volumes containing RSA or argatroban-C6-RSA were then subjected to BCA microprotein estimation and lyophilization. In addition, these samples were analyzed by LC/MS, sandwich ELISA assays (described above) to measure thrombin binding and immunoblotting.
Platelets were purified from freshly drawn human blood diluted with the anticoagulant buffer ACD (9 mls of blood to 1 mL of buffer). The blood was centrifuged for 25 min at 200×g. The platelet-rich plasma (PRP) was recovered with a plastic pipette. The PRP was centrifuged for 15 min at 3,000×g in v-shaped plastic tubes. The supernatant, called platelet-poor plasma (PPP), was then removed and saved, and the platelets were resuspended in buffer A1 (35 mM citric acid, 103 mM NaCl, 5 mM each of glucose and KCl, 2 mM CaCl2, 1 mM […], 3.5 mg/mL BSA, 0.1 μM PGE1 and 0.3 U/mL of apyrase at pH 6.5). The resuspended platelets were washed 2 times with buffer A1. After the last wash, the platelets were resuspended in buffer B1 (137 mM NaCl, 2.6 mM KCL 12 mM NaHCO3, 0.3 mM NaH2 PO4, 3 mM CaCl2, 1 mM MgCl2, 5 mM glucose, 3.5 mg/mL BSA and […] apyrase at pH 7.4) at a density of 3×10^5 /μL. The platelets were maintained at room temperature until ready for use.
Various parameters relevant to platelet aggregation were obtained on a four channel aggregometer manufactured by AFFI BIO. In brief, the reaction chambers are warmed to 37° C. and are agitated at a rate of 1,200 rpm. Light is passed through the reaction chambers, with 300 μL of buffer B1 used to set the 100% transmittance level for each chamber. From a series of standardization experiments, it was determined that 0.5 U/mL of human thrombin (Sigma) is an optimal aggregating concentration of thrombin and is used to set. the 0% transmittance for the instrument. Standard conditions for the assay involve incubating 250 μL of the platelet suspension with or without 50 μL of inhibitor diluted in buffer in the reaction chambers for 60 seconds at 37° C. The value of transmittance is now set as 0%. After this measurement, thrombin is added to the reaction chambers (20 μl) and transmittance is measured for the next 6 minutes. Samples were performed in triplicate.

Test [2] addresses thrombin from human plasma (Homo sapiens, UniProt P00734). The test is described as follows: Km-based fluorogenic assay for inhibition of thrombin (Example 7). To be noted: FIGS. 9 and 10. Type of test: biochemical. Details: from tissue; host or cells: human plasma. As to the method: Thrombin from human plasma was obtained from Enzyme System Products, Dublin, Calif., in glycerol:water 1:1, 11.4 mg/ml, 3800 U/mg, MW 36,700, and stored undiluted at -20° C. It was freshly diluted the day of use.
To dilute for the assay, 0.67 μl (25 Units) of thrombin was pipetted into 5 ml of 0.1 mg/ml BSA (from Pierce, Catalog No. 23209, BSA fraction V, a 2 mg/ml stock in saline with sodium azide), in cold PBS (GIBCO, Catalog No. 14190-136, without calcium chloride and magnesium chloride, pH 7.2) and briefly vortexed, yielding a stock of 5 mU thrombin/μl.
The substrate was N-tBOC-β-Benzyl-Asp-Pro-Arg-7-Amido4-Methylcoumarin HCl and was obtained from Sigma, Catalog No. B4028, Lot 122H0070, F.W. 770.3. Five mg was dissolved in […] DMSO for a 4 mM stock. The stock was stored in 200 μl aliquots at -20° C. in the dark.
An alternative substrate was N-tBOC-Val-Pro-Arg-7-Amido4-Methylcoumarin HCl and was obtained from Sigma, Catalog No. B-9385, Lot 53H0805, F.W. of free base 627.7. Five mg was dissolved in 1.863 ml DMSO for a 4 mM stock. The stock was stored in 200 μl aliquots at -20° C. in the dark.
The fluorescent standard was 7-Amido4-Methylcoumarin and was obtained from Aldrich, Catalog No. 25,737-0, MW 175.19. […]
Initial readings were taken to ensure exclusion of rogue wells with abnormally high backgrounds (λ excitation at 360 nm, bandwidth […], λ emission, 460 nm, bandwidth 40 nm). Then, 25 μl of a 10×stock of the putative inhibitor were added per well, mixed for 5 seconds and read kinetically for 10 minutes at ambient temperature to assess background interference and/or any increase in hydrolysis of substrate due to inhibitor.
The thrombin assay was then initiated by adding 25 μl of thrombin/well with a multichannel pipettor and mixed for 5 seconds. The appearence of the fluorescent product (free 7-amido-4-methylcoumarin released from the peptide by thrombin) was followed simultaneously in 48 wells (one reading per minute for 30 minutes, λ excitation at 360 nm, bandwidth 40 nm, λ emission, 460 nm, bandwidth 40 nm). […]

For test [3], the system named is anti-KLH-argatroban antibody. The test can be described thus: Sandwich ELISA using polyclonal anti-KLH-argatroban antibodies. As to conditions: for concentration down to which detected: hGPA conjugate. In kind it is binding, rabbit. As to the method:
The reaction was quenched by adding hydroxylamine, pH 7.8 to a final concentration of 50 mM and incubating at room temperature for 10 minutes.
Rabbit anti-HSA monoclonal antibody (Boehringer/Mannheim, catalog no. 605001) diluted 1:5000 in PBS, pH 7.4 or mouse anti-hGPA monoclonal antibody (BioAtlan-tic/CRTS, mAb 5F4, diluted to 10 μg/ml in 0.1 M sodium acetate, pH 4.5 or mAb 3C10 diluted 1:500 or mAb 3E4 diluted 1:1000 in PBS, pH 7.4 - each antibody recognizes a different epitope of hGPA), were used to capture respective proteins by aliquotting 100 μl/well into a NUNC Maxisorp F96 plate (catalog no. 439454). The plates were incubated overnight at 4° C., were then blocked by the addition of 200 μl/well of 1% BSA/PBS and incubated at room temperature for 1 hour. The plates were then washed 5 times by submersion in PBS, pH 7.4.
Samples were incubated on the plates for 2 hours at room temperature and then were washed as above.
The plates were then incubated at room temperature for 30 minutes and washed as above.
Biotinylated goat anti-rabbit IgG (Vector, catalog no. BA1000) was diluted 1:1000 in 1% BSA/PBS, pH 7.4 and 100 μl/well added to all wells. The plates were incubated at room temperature for 30 minutes and washed as above.
Next, 100 μl/well of ABC-HRP (Vector, catalog no. PK4000) was added, each component diluted 1:500 in PBS, pH 7.4, with 0.1% TWEEN 20 and incubated 30 minutes at room temperature prior to use. The plates were then washed 10 times by submersion in PBS, pH 7.4.

For the next test, the system named is thrombin. The test can be described thus: Sandwich ELISA for thrombin binding of conjugated proteins (anti-thrombin detection). To be noted: hGPA conjugate, capture mAb 5F4, FIG. 4. As to the method: (§1) The plates were incubated at room temperature for 30 minutes and washed as above.
as §1
Next, 100 μl/well of ABC-HRP (Vector, catalog no. PK4000) was added, each component diluted 1:500 in PBS, pH 7.4, with 0.1% TWEEN 20 and incubated 30 minutes at room temperature prior to use.

For `CC1CNc2c(cccc2S(=O)(=O)N[C@@H](CCCNC(=N)N)C(=O)N2CC[C@@H](C)C[C@@H]2C(=O)O)C1` (stereo partly drawn) [argatroban, reference compound], the “IC50 (estimated concentration which inhibits 50% of the aggregation)” value was “approximately 0.1 μM” in test [1] and 0.1 to 0.15 µM in test [1] (listed as Free argatroban).

For the molecule “RSA sham: RSA incubated for the same length of time at RT in 2% DMSO in PBS”, the thrombin inhibition result in test [2] is on record as “not inhibitory at any concentration assayed”. In addition, in test [1], the “IC50 (estimated concentration which inhibits 50% of the aggregation)” value is over 150 µM. Further, the “interference with platelet aggregation” value in test [1] (even at 150 μM) is listed as “did not interfere with platelet aggregation even at 150 μM”.

B1: hGPA reacted with argatroban-C6 NHS ester: human glycophorin A protein reacted with argatroban-C6 NHS ester (YL-015-35) (conjugate, UniProt P02724 20-150, looked up)
Glycophorin-A: LSTTEVAMHTSTSSSVTKSYISSQTNDTHKRDTYAATPRAHEVSEISVRTVYPPEEETGERVQLAHHFSEPEITLIIFGVMAGVIGTILLISYGIRRLIKKSPSDVKPLPSPDTDVPLSSVEIENPETSDQ
modifications: argatroban-C6 conjugate
B1: in test [3] (HSA and hGPA samples, FIGS. 5-8), the “increase of OD490 versus prequenched ester or protein alone” value is “significant increase of OD490”. In addition, the “concentration down to which detected” value was found to be 60 ng/mL in test [3] (goat anti-rabbit erythrocyte capture) and 30 ng/mL in test [3] (mouse anti-hGPA capture). Besides, the “detection of hGPA-argatroban derivative” value in test [3] (hGPA, 3C10 mAb, FIG. 7) is “at lower levels”; in test [3] (hGPA, 3E4 mAb, FIG. 8), “at lower levels”. In addition, the “concentration at which a significant signal above background was detected” value in test [3] (hGPA, 5F4 mAb, FIG. 6) is about 12 ng/mL. Further, the “concentration giving a detectable signal (binding of thrombin)” value in the test on thrombin was “approximately 30 ng/ml”.

Source of the values: US6087375A, “Methods of treating or preventing thromboses” (priority 1999, dated 2000).
